Measured values: PMC8826447 (Nature Communications, 2022)
Ends that are not written are not given here. * marks the point of attachment. FITC = O=C1OC2(c3ccc(O)cc3Oc3cc(O)ccc32)c2ccc(NC(=S)*)cc21; βAla = NCCC(=O)O

Columns and labels:
[1] = molecular target: T1, ASF1a-NT domain (ASF1a residues 1–155) (human, UniProt Q9Y294 1-155); test: fluorescence polarisation; competition: 63 nM ASF1a 1–155 with 5 nM FITC tracer peptide and rising unlabeled peptide (15.6 nM to 256 μM for the TLK2 peptide); 50 mM Tris pH 8.0, 100 mM NaCl, 10 mM MgCl2, 1.2 mM DTT, 0.012% Brij-35, 0.2 mg/ml BSA; 295 K; details: both partners purified
T1 construct: anti-silencing factor 1a (ASF1a), human, N-terminal immunoglobulin-like domain, residues 1-155; Cloned into pGEX4T-1 as an N-terminal GST fusion and eluted with glutathione; No cleavage step is described; the structures are described with ASF1a residues only (151-155 residues per chain); also called ASF1a 1–155; ASF1-NT; source: E. coli BL21 (DE3) Rosetta 2, purified (glutathione-Sepharose, SEC)
T1 sequence (Q9Y294 1-155): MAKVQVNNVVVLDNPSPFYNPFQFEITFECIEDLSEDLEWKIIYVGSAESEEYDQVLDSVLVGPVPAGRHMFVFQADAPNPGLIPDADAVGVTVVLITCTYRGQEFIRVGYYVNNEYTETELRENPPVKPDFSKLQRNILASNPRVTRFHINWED

[2] = molecular target: T1, ASF1a-NT domain (ASF1a residues 1–155); test: differential scanning fluorimetry; melting temperature of ASF1a 1–155 with or without 160 μM TLK2 peptide; 20 mM HEPES, 250 mM NaCl, 0.1 mM TCEP, pH 7.5; SYPRO orange; ramp 4 to 95 °C; details: both partners purified

Binder	binding result [1]	increase of melting temperature (160 μM peptide) [2] [°C]	EC50 [1] [nM]
TIMPKDIQLARRIRGERA (also called Histone H3 peptide; source: synthetic peptide (Genscript, >98% purity)) [histone H3.1 peptide (ASF1-binding fragment)]	binds	–	–
EELHSLDPRRQELLEARFTGV (TLK2, human, residues 3-23; also called N-terminal TLK2 peptide; unlabeled TLK2 peptide; source: synthetic peptide (Genscript, >98% purity)) [TLK2 peptide spanning residues 3–23]	–	~5	2200
{FITC-βAla}-LHSLDPRRQELLEARFTG (TLK2, human, N-terminal stretch; also called fluorescently labeled TLK2 peptide; TLK2 fluorescent peptide; source: synthetic peptide (Tufts University Core Facility, purified by HPLC)) [fluorescein-labeled TLK2 tracer peptide (FITC-βAla-LHSLDPRRQELLEARFTG)]	binds	–	–
